Experimental data published in patent publication US10688197B2, “Non-alcoholic fatty liver regulator 14-3-3 protein” (Korea University Research and Business Foundation, priority 2015, dated 2020).
Substitutions are numbered along the chain they refer to.

Legend:
[1] = target: T1, binding between PPARγ2 and 14-3-3γ (Homo sapiens, UniProt P37231); test: GST-pull down assay, binding between PPARγ2 and 14-3-3γ (HEK-293T)
T1 construct: expressed in transfected cells; host or cells: HEK-293T
T1 sequence (P37231 1-505): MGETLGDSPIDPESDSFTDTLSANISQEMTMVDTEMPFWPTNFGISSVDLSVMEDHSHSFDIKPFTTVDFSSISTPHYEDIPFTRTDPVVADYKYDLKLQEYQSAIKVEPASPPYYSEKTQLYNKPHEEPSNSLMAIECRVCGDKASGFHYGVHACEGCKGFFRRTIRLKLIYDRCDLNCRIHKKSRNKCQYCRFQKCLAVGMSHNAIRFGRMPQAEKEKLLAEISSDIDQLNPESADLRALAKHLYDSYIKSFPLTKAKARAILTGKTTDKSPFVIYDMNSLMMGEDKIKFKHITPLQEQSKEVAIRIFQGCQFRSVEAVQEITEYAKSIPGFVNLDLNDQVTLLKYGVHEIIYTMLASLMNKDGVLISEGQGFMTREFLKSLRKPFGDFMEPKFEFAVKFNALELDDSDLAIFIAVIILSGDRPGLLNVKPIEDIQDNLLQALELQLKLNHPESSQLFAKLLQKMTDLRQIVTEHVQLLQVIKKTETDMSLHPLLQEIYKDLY
Description: After transfection, […], washed with ice-cold PBS, and lysed using 500 μl/well of a lysis buffer (150 mM NaCl, 1 mM EDTA, 1% Nonidet P-40, 5% glycerol, 25 mM tris-HCl, pH 7.5, protease inhibitor added), and the lysed cells were centrifuged at 10,000×g and 4° C. for 10 minutes to extract proteins. Thereafter, 1,000 μg of the proteins was reacted with 20 μl of glutathione Sepharose 4B beads (GE Healthcare, Buckinghamshire, UK) for 6 hours, and then washing of the beads with 1 ml of ice-cold PBS was repeated 5 times, and the beads were boiled at 100° C. for 10 minutes, followed by 10% SDS-PAGE gel separation and western blotting. A ratio of GST antibodies (Santa Cruz) to Myc antibodies (self-production) was 1:3000. The detection of each protein was performed using West Pico ECL (Thermo scientific, Rockford, Ill.) and identified in a darkroom.
After transfection, […], washed with ice-cold PBS, and lysed using 500 μl/well of a lysis buffer (150 mM NaCl, 1 mM EDTA, 1% Nonidet P-40, 5% glycerol, 25 mM tris-HCl, pH 7.5, protease inhibitor added), and the lysed cells were centrifuged at 10,000×g and 4° C. for 10 minutes to extract proteins. […]

PPARγ2 S273A mutant = target: T2, PPARγ2 S273A mutant (Homo sapiens, UniProt P37231, S273A); test: GST-pull down assay with PPARγ2 S273A mutant; type: binding; settings: FIGS. 4A and 4B
T2 construct: expressed in transfected cells; host or cells: HEK-293T
T2 sequence (P37231 1-505 S273A): T1 sequence (P37231 1-505) with S273A
Description: 14-3-3 proteins are known to bind to phosphorylated residues of a target protein. Phosphorylated residues associated with the activity of PPARγ2 are known to be serine 112 and serine 273. Thus, PPARγ2 mutants (PPARγ2 S112A and S273A) with non-phosphorylated serine 112 and serine 273 residues were produced and binding thereof with 14-3-3 proteins was verified through GST-pull down assay.
HEK-293T cells were seeded in a 100 mm plate at a density of 2×10^6 cells per each well, and then transfected with Flag-PPARγ2 (WT) DNA (4 μg), Flag-PPARγ2 (S112A) DNA (4 μg), Flag-PPARγ2 (S273A) DNA (4 μg), and mGST-14-3-3β (4 μg) or mGST-14-3-3γ (4 μg) using an E-fection plus reagent (Lugen). As for Flag-PPARγ2 (S112A) DNA and Flag-PPARγ2 (S273A) DNA, DNA fragments amplified through polymerase chain reaction (PCR) were cloned into a Flag-tagged vector. A ratio of DNA to the E-fection plus reagent was 1:2, and this method was performed according to a manufacturer's manual. The corresponding cells were washed with ice-cold PBS and lysed using 500 μl/well of a lysis buffer (150 mM NaCl, 1 mM EDTA, 1% Nonidet P-40, 5% glycerol, 25 mM tris-HCl, pH 7.5, protease inhibitor added), and the lysed cells were centrifuged at 10,000×g and 4° C. for 10 minutes to extract proteins. […]

binding between 14-3-3γ and PPARγ2 ([1]; expression amount of 14-3-3β increased (HA-14-3-3β DNA 2 and 4 μg), FIG. 5B)	binding with PPARγ2 S273A mutant (PPARγ2 S273A mutant)	binding between PPARγ2 and 14-3-3γ ([1]; 200 μM oleic acid 72 hours, FIG. 8B)	Molecule
reduced	suppressed		14-3-3β: 14-3-3 isoform protein overexpressed by DNA transfection; increases the transcriptional activity of PPARγ2 by binding to PPARγ2
	suppressed		14-3-3γ: 14-3-3 isoform protein overexpressed by DNA transfection; decreases the transcriptional activity of PPARγ2; proposed active ingredient
		reduced	CCCCCCCC/C=C\CCCCCCCC(=O)O [oleic acid]
